B1: E74W (antibody, V domains shown)
VH: QVQLVQSGAEVKKPGSSVKVSCKASGYTFSSNVISWVRQAPGQGLEWMGGVIPIVDIANYAQRFKGRVTITADWSTSTTYMELSSLRSEDTAVYYCASTLGLVLDAMDYWGQGTLVTVSS
VL: ETVLTQSPGTLSLSPGERATLSCRASQSLGSSYLAWYQQKPGQAPRLLIYGASSRAPGIPDRFSGSGSGTDFTLTISRLEPEDFAVYYCQQYADSPITFGQGTRLEIK
notes: GC1008 IgG4 variant
B2: I54F (antibody, V domains shown)
VH: B1 VH with I54F, W74E
VL: B1 VL
notes: GC1008 IgG4 variant
B3: S30E (antibody, V domains shown)
VH: B1 VH with S30E, W74E
VL: B1 VL
notes: GC1008 IgG4 variant
B4: N32E (antibody, V domains shown)
VH: B1 VH with N32E, W74E
VL: B1 VL
notes: GC1008 IgG4 variant
B5: N32K (antibody, V domains shown)
VH: B1 VH with N32K, W74E
VL: B1 VL
notes: GC1008 IgG4 variant
B6: V55F (antibody, V domains shown)
VH: B1 VH with V55F, W74E
VL: B1 VL
notes: GC1008 IgG4 variant
B7: I54W (antibody, V domains shown)
VH: B1 VH with I54W, W74E
VL: B1 VL
notes: GC1008 IgG4 variant
B8: S31W (antibody, V domains shown)
VH: B1 VH with S31W, W74E
VL: B1 VL
notes: GC1008 IgG4 variant
B9: I54T (antibody, V domains shown)
VH: B1 VH with I54T, W74E
VL: B1 VL
notes: GC1008 IgG4 variant
B10: Y27H (antibody, V domains shown)
VH: B1 VH with Y27H, W74E
VL: B1 VL
notes: GC1008 IgG4 variant
B11: S30W (antibody, V domains shown)
VH: B1 VH with S30W, W74E
VL: B1 VL
notes: GC1008 IgG4 variant
B12: I52L (antibody, V domains shown)
VH: B1 VH with I52L, W74E
VL: B1 VL
notes: GC1008 IgG4 variant

Residue numbers refer to the chain shown, from its start.

For one assay, the target named is T1, human TGFβ1 (human, UniProt P01137 279-390).
T1 construct: also called TGFβ1 homodimer
T1 sequence (P01137 279-390 limits assumed): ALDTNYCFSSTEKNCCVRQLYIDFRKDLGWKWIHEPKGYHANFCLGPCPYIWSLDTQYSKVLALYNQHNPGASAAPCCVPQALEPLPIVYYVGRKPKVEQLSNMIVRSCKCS
The assay can be described thus: Biacore off-rate vs wt GC1008, 50 nM. The method, boiled down:
(§1)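 Surface plasmon resonance on a Biacore 3000 measured how fast purified antibody variants dissociated from TGFβ isoforms immobilized at about 100 RU. Variants carried single heavy- or light-chain substitutions and were produced by transient Expi293F transfection with Protein A cleanup. Samples at 50 nM were tested in duplicate, and each variant kd was divided by the wild-type control kd to give fold change.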
The molecule B1 showed a kd var/kd wt of 0.8.

Molecule B2 had a kd var/kd wt of 1.3.

Molecule B3 showed a kd var/kd wt of 1.2.

B4: the kd var/kd wt came to 0.6.

Regarding B5, the kd var/kd wt was 2.7.

For B6, the kd var/kd wt was 1.2.

The molecule B7 yielded a kd var/kd wt of 2.

B8 had a kd var/kd wt of 1.7.

B9 displayed a kd var/kd wt of 2.1.

B10: the kd var/kd wt amounted to 1.5.

For the molecule B11, the kd var/kd wt amounted to 0.7.

B12 had a kd var/kd wt of 3.

The target of a further assay is T2, human TGFβ3 (human, UniProt P10600 301-412).
T2 sequence: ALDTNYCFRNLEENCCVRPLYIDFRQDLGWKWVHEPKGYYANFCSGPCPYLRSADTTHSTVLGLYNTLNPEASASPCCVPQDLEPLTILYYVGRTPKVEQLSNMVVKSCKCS
The assay can be described thus: Biacore off-rate vs wt GC1008, 50 nM. The method, boiled down:
as §1
Molecule B1 yielded a kd var/kd wt of 0.3.

B2 returned a kd var/kd wt of 1.2.

For B3, the kd var/kd wt worked out at 1.1.

For B4, the kd var/kd wt came out at 0.7.

With B5, the kd var/kd wt was determined as 1.8.

The molecule B6 registered a kd var/kd wt of 1.2.

As to B7, the kd var/kd wt turned out to be 1.7.

Molecule B8 displayed a kd var/kd wt of 1.6.

B9 had a kd var/kd wt of 1.7.

The molecule B10 displayed a kd var/kd wt of 1.4.

B11 yielded a kd var/kd wt of 0.3.

Turning to B12, the kd var/kd wt is 1.6.

A further assay concerns the target T3, human TGFβ2 (human, UniProt P61812 303-414).
T3 construct: also called TGFβ2 homodimer
T3 sequence: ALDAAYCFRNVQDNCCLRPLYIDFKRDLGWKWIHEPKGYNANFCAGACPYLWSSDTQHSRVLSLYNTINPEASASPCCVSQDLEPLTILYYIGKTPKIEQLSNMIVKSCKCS
Kind of assay: Biacore off-rate vs wt GC1008, 50 nM. The method, boiled down:
as §1
On the technique in general: In SPR one partner is held on a chip, and binding of the other changes the refractive index at the surface.
The molecule B1 came in with a kd var/kd wt of 0.3.

As for B2, the kd var/kd wt stood at 0.7.

Molecule B3 registered a kd var/kd wt of 1.4.

The molecule B4 came in with a kd var/kd wt of 0.8.

Regarding B5, the kd var/kd wt was 1.4.

Regarding B6, the kd var/kd wt came to 0.9.

Molecule B7 had a kd var/kd wt of 1.2.

As for B8, the kd var/kd wt was found to be 1.4.

B9 registered a kd var/kd wt of 1.3.

As to B10, the kd var/kd wt was found to be 1.4.

In turn, B11 yielded a kd var/kd wt of 0.4.

With B12, the kd var/kd wt is 1.4.

The target in another assay is T1, human TGFβ1. Kind of assay: Biacore off-rate vs wt GC1008. From the text:
(§2) Plasmids encoding either the GC1008 heavy chain or light chain were used as a template in PCR-based mutagenesis reactions. Mutations to the encoding DNA were made to create 155 single amino acid substitutions of the encoded heavy chain amino acid sequence and one single amino acid substitution of the encoded light chain amino acid sequence. A QuikChange® Lightning Site-Directed Mutagenesis kit (Agilent Technologies, Santa Clara Calif.) was used according to the manufacturer's instructions to create DNA mutations using a set of forward and reverse primers, either designed for a specific amino acid or for all 20 amino acids with a degenerate codon (NNK). After sequencing confirmation, identified mutant DNA was paired with a wild-type light or heavy chain DNA for transfection into an Expi293F™ host cell suspension (Life Techonologies Corp., Grand Island, N.Y.). At 4 days post-transfection, conditioned media (1 mL) was harvested and purified using a 1 mL Protein A PhyTip® column (PhyNexus, Inc., San Jose, Calif.) and a PureSpeed™ 12-channel pipette (Rainin Instrument LLC, Oakland, Calif.). Purified variant antibody samples were analyzed in duplicate on a Biacore® 3000 (GE Healthcare) at 50 nM concentrations, using the 100 RU level TGFβ1, 2, and 3 immobilized surfaces. The off-rate (kd) of the variants was divided by the kd of the wild-type control to obtain the fold change in the kd. […] A heat map was generated to visualize the results. Variants that completely lost affinity for TGFβ were shown in red without numbers.
With B1, the kd mutant/kd wt came out at 0.8.

B2: the kd mutant/kd wt was 1.3.

B3 returned a kd mutant/kd wt of 1.2.

As to B4, the kd mutant/kd wt worked out at 0.6.

Take B5: the kd mutant/kd wt amounted to 2.7.

Take B6: the kd mutant/kd wt is 1.2.

For B7, the kd mutant/kd wt came out at 2.

With B8, the kd mutant/kd wt stood at 1.7.

As to B9, the kd mutant/kd wt was 2.1.

B10: the kd mutant/kd wt is 1.5.

B11 yielded a kd mutant/kd wt of 0.7.

Molecule B12 had a kd mutant/kd wt of 3.

A further assay deals with T2, human TGFβ3. The assay can be described thus: Biacore off-rate vs wt GC1008.
Description: as §2
Turning to B1, the kd mutant/kd wt was found to be 0.3.

On to B2, for which the kd mutant/kd wt turned out to be 1.2.

Take B3: the kd mutant/kd wt came out at 1.1.

With B4, the kd mutant/kd wt turned out to be 0.7.

For B5, the kd mutant/kd wt was found to be 1.8.

B6 had a kd mutant/kd wt of 1.2.

For B7, the kd mutant/kd wt was 1.7.

B8: the kd mutant/kd wt was found to be 1.6.

Molecule B9 had a kd mutant/kd wt of 1.7.

Regarding B10, the kd mutant/kd wt turned out to be 1.4.

B11 yielded a kd mutant/kd wt of 0.3.

For B12, the kd mutant/kd wt came to 1.6.

A further assay deals with T3, human TGFβ2. The assay can be described thus: Biacore off-rate vs wt GC1008.
Description: as §2
In the case of B1, the kd mutant/kd wt amounted to 0.3.

The molecule B2 displayed a kd mutant/kd wt of 0.7.

B3 registered a kd mutant/kd wt of 1.4.

As to B4, the kd mutant/kd wt was found to be 0.8.

The molecule B5 registered a kd mutant/kd wt of 1.4.

The molecule B6 gave a kd mutant/kd wt of 0.9.

B7 showed a kd mutant/kd wt of 1.2.

The molecule B8 showed a kd mutant/kd wt of 1.4.

B9: the kd mutant/kd wt is 1.3.

Take B10: the kd mutant/kd wt was determined as 1.4.

Regarding B11, the kd mutant/kd wt worked out at 0.4.

B12 showed a kd mutant/kd wt of 1.4.

The next assay addresses T1, human TGFβ1. The assay can be described thus: Biacore, 3.33-90 nM, 1:1 global fit, vs wt GC1008. The method, then:
(§3) In FIG. 6C, seventeen mutants were selected and scaled up to produce sufficient amount of purified protein for KD (equilibrium constant=kd/ka) analysis by Biacore. Multiple concentrations (90, 30, 10 and 3.33 nM) were used in duplicate on the 150 RU level TGFβ1, 2, and 3 immobilized surfaces. KD was calculated using global curve fitting analysis for a 1-to-1 Langmuir binding model. The experimental data from all four concentrations were used for calculation except for I54N and I54R mutants, where only the top 2 concentrations were used. The fold changes in KD were compared to the fold changes in kd (off rate) presented in FIG. 6B, and a heat map was generated for visualization. Similar fold changes were observed from the two data sets, confirming the validity of using kd as a parameter for screening of 155 single mutants as shown in FIG. 6B.
Turning to B1, the “KD mutant/KD wt” value came out at 0.9.

As to B2, the “KD mutant/KD wt” value turned out to be 1.3.

Regarding B3, the “KD mutant/KD wt” value came out at 1.5.

With B4, the “KD mutant/KD wt” value was determined as 1.

Consider B5, for which the “KD mutant/KD wt” value came out at 4.

As for B6, the “KD mutant/KD wt” value stood at 1.

For the molecule B7, the “KD mutant/KD wt” value amounted to 1.7.

With B8, the “KD mutant/KD wt” value was 1.3.

As to B9, the “KD mutant/KD wt” value was 2.1.

B10: the “KD mutant/KD wt” value was found to be 1.2.

For the molecule B11, the “KD mutant/KD wt” value amounted to 0.7.

Take B12: the “KD mutant/KD wt” value came out at 4.1.

The next assay deals with T2, human TGFβ3. Kind of assay: Biacore, 3.33-90 nM, 1:1 global fit, vs wt GC1008. The method, then: as §3
Take B1: the “KD mutant/KD wt” value came to 0.6.

B2: the “KD mutant/KD wt” value was determined as 1.2.

Take B3: the “KD mutant/KD wt” value is 0.8.

Consider B4, for which the “KD mutant/KD wt” value came to 1.

Regarding B5, the “KD mutant/KD wt” value turned out to be 3.7.

Turning to B6, the “KD mutant/KD wt” value is 0.8.

For B7, the “KD mutant/KD wt” value is 3.1.

In the case of B8, the “KD mutant/KD wt” value was determined as 1.3.

As for B9, the “KD mutant/KD wt” value was 3.2.

Regarding B10, the “KD mutant/KD wt” value stood at 1.1.

For B11, the “KD mutant/KD wt” value was found to be 0.3.

With B12, the “KD mutant/KD wt” value stood at 2.6.

The target in another assay is T3, human TGFβ2. The assay can be described thus: Biacore, 3.33-90 nM, 1:1 global fit, vs wt GC1008. The method, then:
as §3
As to B1, the “KD mutant/KD wt” value worked out at 0.5.

Take B2: the “KD mutant/KD wt” value worked out at 0.6.

Take B3: the “KD mutant/KD wt” value is 1.6.

Turning to B4, the “KD mutant/KD wt” value was 0.8.

B5: the “KD mutant/KD wt” value came out at 2.6.

In the case of B6, the “KD mutant/KD wt” value was 0.6.

On to B7, for which the “KD mutant/KD wt” value was 1.4.

B8: the “KD mutant/KD wt” value turned out to be 1.3.

B9: the “KD mutant/KD wt” value was 2.1.

Turning to B10, the “KD mutant/KD wt” value was 1.3.

Consider B11, for which the “KD mutant/KD wt” value was found to be 0.4.

Take B12: the “KD mutant/KD wt” value was found to be 2.4.

Source of the values: patent US20170342144A1 (Sanofi, published 2017).
